The text below walks through data of article PMC12802937 (Nucleic Acids Research, 2026).

Holding throughout (details): both partners purified
The target in one experiment is T1, Bre1-LR V382N (budding yeast, UniProt Q07457 227-700, V382N).
T1 construct: source: E. coli BL21 Rosetta (DE3), purified (Ni-NTA, heparin, gel filtration)
T1 sequence (looked up): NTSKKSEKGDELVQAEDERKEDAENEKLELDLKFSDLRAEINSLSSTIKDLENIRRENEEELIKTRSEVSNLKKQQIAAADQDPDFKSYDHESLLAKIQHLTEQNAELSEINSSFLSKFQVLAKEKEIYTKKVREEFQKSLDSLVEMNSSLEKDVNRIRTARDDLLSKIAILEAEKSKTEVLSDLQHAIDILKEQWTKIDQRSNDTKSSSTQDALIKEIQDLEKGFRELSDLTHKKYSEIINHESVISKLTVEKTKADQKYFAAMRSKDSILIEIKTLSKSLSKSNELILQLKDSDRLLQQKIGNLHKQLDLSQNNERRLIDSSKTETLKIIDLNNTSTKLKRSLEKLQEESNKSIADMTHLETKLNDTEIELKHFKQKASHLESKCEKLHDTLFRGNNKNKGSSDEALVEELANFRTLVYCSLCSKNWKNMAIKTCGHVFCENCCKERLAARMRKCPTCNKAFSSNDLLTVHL
The experiment can be described thus: ITC; Lge1-CT (50–60 μM) injected into Bre1-LR (15 μM); 25°C, 20 mM TRIS (pH 7.5), 200 mM sodium chloride.

The target of a further experiment is T2, Bre1-LR K534E (budding yeast, UniProt Q07457 227-700, K534E).
T2 construct: source: E. coli BL21 Rosetta (DE3), purified (Ni-NTA, heparin, gel filtration)
T2 sequence (looked up): T1 sequence (looked up) with N156V, K308E
The description is as above.

The target in a further experiment is T3, Bre1-LR A489N (budding yeast, UniProt Q07457 227-700, A489N).
T3 construct: source: E. coli BL21 Rosetta (DE3), purified (Ni-NTA, heparin, gel filtration)
T3 sequence (looked up): T1 sequence (looked up) with N156V, A263N
Described as above.

For experiment [1], the target named is T4, Bre1-LR (Bre1 residues 227–700, LBD and RING domains), 6× histidine tag (budding yeast, UniProt Q07457 227-700).
T4 construct: two Bre1 polypeptides form the dimeric coiled-coils of the LBD in the crystal structure; also called WT; source: E. coli BL21 Rosetta (DE3), purified (Ni-NTA, heparin, gel filtration)
T4 sequence (looked up): T1 sequence (looked up) with N156V
The experiment is described as above.

Experiment [2] concerns the target T4, Bre1-LR (Bre1 residues 227–700, LBD and …). The experiment can be described thus: ITC; Lge1-CT (50–60 μM) injected into Bre1-LR (15 μM); 25°C, 20 mM TRIS (pH 7.5), 300 mM sodium chloride.

Changes are numbered by the printed parent chain.

B1: Lge1-CT (Lge1 residues 261–332), intein-chitin binding domain (CBD) tag construct (domain or fragment, budding yeast, UniProt Q02796 261-332, looked up)
chain: KNVKKTNNTESECEKAREVFKESDSIDSALEELNLKINSNELELRLLNNQCDKHALNIQLTQEKLDSLLLMQ
notes: Lge1, budding yeast, residues 261-332; residues 268–331 resolved in the electron density; the intein-CBD tag is named on the protein in the pull-down; also called intein-CBD-fused Lge1-CT; intein-CBD-tagged Lge1-CT; source: E. coli BL21 Rosetta (DE3): cleared cell extract on chitin resin (pull-down); purified (chitin, heparin, gel filtration) for ITC and SPR; co-purified with Bre1-LR for the …
Consider B1, for which the Kd stood at 61.2 ± 14.4 nM with Bre1-LR V382N; 36.9 ± 14.5 nM with Bre1-LR K534E; 154 ± 55 nM with Bre1-LR A489N; 24.5 ± 4.5 nM in experiment [1]; 2.7 ± 1.7 nM in experiment [2]. Also, the dH in the experiment with Bre1-LR V382N was -53.1 ± 1.7 kcal/mol; in the experiment with Bre1-LR K534E, -33.9 ± 2.1 kcal/mol; in the experiment with Bre1-LR A489N, -52.1 ± 3.6 kcal/mol; in experiment [1], -50.5 ± 1 kcal/mol; in experiment [2] it was -38.8 ± 0.6 kcal/mol. For the same molecule, the “stoichiometry N” value in the experiment with Bre1-LR V382N was determined as 0.378 ± 0.005; with Bre1-LR K534E, 0.469 ± 0.008; with Bre1-LR A489N, 0.375 ± 0.012; in experiment [1], 0.396 ± 0.003; in experiment [2], 0.318 ± 0.002.
